Where two headings read alike, the source gives them in different places.
B1: activin A (ligand, UniProt P08476 311-426, looked up)
chain: GLECDGKVNICCKKQFFVSFKDIGWNDWIIAPSGYHANYCEGECPSHIAGTSGSSLSFHSTVINHYRMRGHSPFANLKSCCVPTKLRPMSMLYYDDGQNIIKKDIQNMIVEECGCS
B2: BMP9 (ligand, UniProt Q9UK05 320-429, looked up)
chain: SAGAGSHCQKTSLRVNFEDIGWDSWIIAPKEYEAYECKGGCFFPLADDVTPTKHAIVQTLVHLKFPTKVGKACCVPTKLSPISVLYKDDMGVPTLKYHYEGMSVAECGCR
notes: also called GDF2

Legend:
ActRIIB-Fc homodimer [1] = target: T1, ActRIIB-Fc homodimer (UniProt Q13705 19-137); assay: Biacore SPR
T1 construct: extracellular domain; also called ActRIIB homodimer
T1 sequence (looked up): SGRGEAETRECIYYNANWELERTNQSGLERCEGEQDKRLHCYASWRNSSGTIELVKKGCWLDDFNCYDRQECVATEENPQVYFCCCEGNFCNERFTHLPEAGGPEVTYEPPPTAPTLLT
Method: (§1) Ligands were injected and allowed to flow over the captured receptor protein.

ActRIIB-Fc homodimer [2] = target: T1, ActRIIB-Fc homodimer; assay: Biacore SPR; remark: listed apart in the source
Method: as §1

ALK3-Fc homodimer = target: T2, ALK3-Fc homodimer (UniProt P36894 24-152); assay: Biacore SPR
T2 construct: extracellular domain
T2 sequence (P36894 24-152): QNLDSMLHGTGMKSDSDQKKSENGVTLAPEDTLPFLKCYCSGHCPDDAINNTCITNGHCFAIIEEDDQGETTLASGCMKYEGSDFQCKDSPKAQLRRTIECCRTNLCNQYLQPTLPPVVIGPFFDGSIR
Method: as §1

ActRIIB-Fc homodimer [3] = target: T1, ActRIIB-Fc homodimer; assay: Biacore SPR; remark: listed apart in the source
Method: as §1

ActRIIB-Fc homodimer [4] = target: T1, ActRIIB-Fc homodimer; assay: Biacore SPR; remark: listed apart in the source
Method: as §1

BMPRII-Fc homodimer [5] = target: T3, BMPRII-Fc homodimer (UniProt Q13873 27-150); assay: Biacore SPR; kinetics indeterminate (transient)
T3 construct: extracellular domain
T3 sequence (looked up): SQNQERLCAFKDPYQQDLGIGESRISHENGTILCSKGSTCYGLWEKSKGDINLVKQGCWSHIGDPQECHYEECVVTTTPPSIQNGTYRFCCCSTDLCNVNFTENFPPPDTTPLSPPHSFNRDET
Method: as §1

ActRIIB-Fc homodimer [6] = target: T1, ActRIIB-Fc homodimer; assay: Biacore SPR; remark: listed apart in the source
Method: as §1

BMPRII-Fc homodimer [7] = target: T3, BMPRII-Fc homodimer; assay: Biacore SPR
Method: as §1

BMPRII-Fc homodimer [8] = target: T3, BMPRII-Fc homodimer; assay: Biacore SPR; remark: listed apart in the source
Method: A Biacore™-based binding assay was used to compare ligand binding selectivity of the BMPRII-Fc:ALK2-Fc heterodimeric complex described above with that of BMPRII-Fc and ALK2-Fc homodimeric complexes. […] Ligands were injected and allowed to flow over the captured receptor protein.

BMPRII-Fc homodimer [9] = target: T3, BMPRII-Fc homodimer; assay: Biacore SPR; remark: listed apart in the source
Method: as §1

ActRIIA-Fc homodimer = target: T4, ActRIIA-Fc homodimer (UniProt P27037 20-135); assay: Biacore SPR; kinetics indeterminate (transient)
T4 construct: extracellular domain
T4 sequence (P27037 20-135): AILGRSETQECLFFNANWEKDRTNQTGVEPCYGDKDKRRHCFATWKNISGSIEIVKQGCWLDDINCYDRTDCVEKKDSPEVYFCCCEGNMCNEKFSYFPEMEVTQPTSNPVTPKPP
Method: as §1

BMPRII-Fc homodimer [10] = target: T3, BMPRII-Fc homodimer; assay: Biacore SPR; remark: listed apart in the source
Method: as §1

Row | Binder | Kd (ActRIIB-Fc homodimer [1]) [nM] | koff (ActRIIB-Fc homodimer [1]) [s⁻¹] | kon (ActRIIB-Fc homodimer [1]) [M⁻¹ s⁻¹] | Kd (ActRIIB-Fc homodimer [2]) [nM] | koff (ActRIIB-Fc homodimer [2]) [s⁻¹] | kon (ActRIIB-Fc homodimer [2]) [M⁻¹ s⁻¹] | binding result (ALK3-Fc homodimer) | Kd (ActRIIB-Fc homodimer [3]) [nM] | koff (ActRIIB-Fc homodimer [3]) [s⁻¹] | kon (ActRIIB-Fc homodimer [3]) [M⁻¹ s⁻¹] | Kd (ActRIIB-Fc homodimer [4]) [nM] | koff (ActRIIB-Fc homodimer [4]) [s⁻¹] | kon (ActRIIB-Fc homodimer [4]) [M⁻¹ s⁻¹] | Kd (ActRIIB-Fc homodimer [6]) [nM] | koff (ActRIIB-Fc homodimer [6]) [s⁻¹] | kon (ActRIIB-Fc homodimer [6]) [M⁻¹ s⁻¹] | other results
1 | B1 | 0.019 | 0.00023 | 1.2e+07 | 0.015 | 0.00017 | 1.2e+07 | no binding | 0.011 | 0.00014 | 1.3e+07 | 0.011 | 0.00014 | 1.3e+07 | 0.019 | 0.00023 | 1.2e+07 | Kd (BMPRII-Fc homodimer [5]): > 43 nM
2 | B2 | 0.034 | 0.0013 | 3.9e+07 | 0.034 | 0.0013 | 3.9e+07 | no binding | 0.034 | 0.0013 | 3.9e+07 | 0.01 | 0.0012 | 1.2e+08 | 0.077 | 0.0011 | 1.4e+07 | Kd (BMPRII-Fc homodimer [7]): 2.1 nM; koff (BMPRII-Fc homodimer [7]): 0.026 s⁻¹; kon (BMPRII-Fc homodimer [7]): 1.2e+07 M⁻¹ s⁻¹; Kd (BMPRII-Fc homodimer [8]): 1.6 nM; koff (BMPRII-Fc homodimer [8]): 0.073 s⁻¹; kon (BMPRII-Fc homodimer [8]): 4.5e+07 M⁻¹ s⁻¹; Kd (BMPRII-Fc homodimer [9]): 2.1 nM; koff (BMPRII-Fc homodimer [9]): 0.026 s⁻¹; kon (BMPRII-Fc homodimer [9]): 1.2e+07 M⁻¹ s⁻¹; Kd (ActRIIA-Fc homodimer): > 10 nM; Kd (BMPRII-Fc homodimer [10]): 2.1 nM; koff (BMPRII-Fc homodimer [10]): 0.026 s⁻¹; kon (BMPRII-Fc homodimer [10]): 1.2e+07 M⁻¹ s⁻¹

From patent publication US20190225669A1 (ACCELERON PHARMA, published 2019)
